Target: fibrillar amyloid-beta (UniProt P05067)
Test: SPR

Chain of UniProt P05067 (P05067 672-713): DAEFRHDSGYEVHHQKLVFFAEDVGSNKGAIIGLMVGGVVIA

**Q.** For “Galectin-3 (from UniProt P17931 1-250) (natural protein)”, which Kd is on record?
**A.** 9 nM

— article doi:10.1101/2025.03.17.643790
